Measured values from patent publication US20120045819A1.
Positions of bridges follow the written chain, without caps; N, C: chain ends. No end group written: not given here. *: point of attachment. NHNH2 = NN*

How the values were obtained:
[1] = biological target: REFACTO® (recombinant factor VIII-like polypeptide consisting of amino acids 1-743 and 1638 through 2332 of human factor VIII) (human) (UniProt P00451); test: phage ELISA, ratio with target to without target
[2] = biological target: REFACTO® (recombinant factor VIII-like polypeptide consisting of amino acids 1-743 and 1638 through 2332 of human factor VIII) (human) (UniProt P00451); test: phage ELISA on the factor VIII target (REFACTO), anti-M13-HRP
[3] = biological target: REFACTO® (recombinant factor VIII-like polypeptide consisting of amino acids 1-743 and 1638 through 2332 of human factor VIII) (human) (UniProt P00451); test: affinity column, peptide on Toyopearl Formyl 650-M; fraction quantified by RP-HPLC
[4] = biological target: REFACTO® (recombinant factor VIII-like polypeptide consisting of amino acids 1-743 and 1638 through 2332 of human factor VIII) (human) (UniProt P00451); test: affinity column, peptide on Toyopearl Formyl 650-M; fraction quantified by factor VIII activity assay
[5] = biological target: REFACTO® (recombinant factor VIII-like polypeptide consisting of amino acids 1-743 and 1638 through 2332 of human factor VIII) (human) (UniProt P00451); test: batch binding to peptide beads; fractions by sandwich ELISA; % of input
[6] = biological target: REFACTO® (recombinant factor VIII-like polypeptide consisting of amino acids 1-743 and 1638 through 2332 of human factor VIII) (human) (UniProt P00451); test: batch binding to peptide beads; fractions by sandwich ELISA; % of total recovered

REFACTO® (recombinant factor VIII-like polypeptide consisting of amino acids 1-743 and 1638 through 2332 of human factor VIII) (human), sequence (P00451 20-762, chain 1 of 2): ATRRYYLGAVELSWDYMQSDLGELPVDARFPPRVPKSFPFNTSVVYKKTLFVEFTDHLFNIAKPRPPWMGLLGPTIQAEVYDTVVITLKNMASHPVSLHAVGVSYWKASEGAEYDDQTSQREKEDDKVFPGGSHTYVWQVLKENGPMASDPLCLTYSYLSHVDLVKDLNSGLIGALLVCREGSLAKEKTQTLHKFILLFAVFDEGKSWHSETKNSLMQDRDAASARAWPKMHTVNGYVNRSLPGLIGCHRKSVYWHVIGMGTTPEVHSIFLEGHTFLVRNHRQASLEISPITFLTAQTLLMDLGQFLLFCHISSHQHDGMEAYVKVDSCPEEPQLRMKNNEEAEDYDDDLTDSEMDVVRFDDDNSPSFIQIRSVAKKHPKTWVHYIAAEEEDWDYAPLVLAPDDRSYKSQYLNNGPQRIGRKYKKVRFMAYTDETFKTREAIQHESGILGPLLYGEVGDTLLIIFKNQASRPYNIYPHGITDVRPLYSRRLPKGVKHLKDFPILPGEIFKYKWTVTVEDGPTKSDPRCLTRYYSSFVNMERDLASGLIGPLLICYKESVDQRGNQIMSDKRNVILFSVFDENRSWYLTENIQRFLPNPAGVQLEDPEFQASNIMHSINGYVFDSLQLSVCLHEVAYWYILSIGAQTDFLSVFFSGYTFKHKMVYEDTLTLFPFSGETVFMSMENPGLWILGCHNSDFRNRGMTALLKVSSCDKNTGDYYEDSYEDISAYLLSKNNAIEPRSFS
REFACTO® (recombinant factor VIII-like polypeptide consisting of amino acids 1-743 and 1638 through 2332 of human factor VIII) (human), sequence (P00451 1657-2351, chain 2 of 2): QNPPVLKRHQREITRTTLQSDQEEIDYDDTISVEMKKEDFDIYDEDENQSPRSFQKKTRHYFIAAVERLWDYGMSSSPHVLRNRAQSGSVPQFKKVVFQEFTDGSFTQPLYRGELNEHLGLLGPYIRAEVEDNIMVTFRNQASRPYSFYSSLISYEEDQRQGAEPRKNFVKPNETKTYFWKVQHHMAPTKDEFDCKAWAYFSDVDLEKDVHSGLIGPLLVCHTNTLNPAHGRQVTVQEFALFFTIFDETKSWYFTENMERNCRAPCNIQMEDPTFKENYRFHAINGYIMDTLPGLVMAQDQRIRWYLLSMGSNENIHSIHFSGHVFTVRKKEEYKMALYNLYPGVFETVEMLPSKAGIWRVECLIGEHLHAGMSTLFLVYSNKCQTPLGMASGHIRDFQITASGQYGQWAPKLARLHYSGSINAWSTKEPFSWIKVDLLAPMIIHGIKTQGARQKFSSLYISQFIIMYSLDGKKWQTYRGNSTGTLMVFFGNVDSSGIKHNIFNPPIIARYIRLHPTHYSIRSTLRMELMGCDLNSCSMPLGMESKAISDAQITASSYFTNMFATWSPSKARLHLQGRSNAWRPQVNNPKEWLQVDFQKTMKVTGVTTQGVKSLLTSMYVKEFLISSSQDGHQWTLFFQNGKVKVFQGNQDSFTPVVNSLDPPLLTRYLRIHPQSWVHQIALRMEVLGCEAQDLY

**Q.** For HPCGSWFNPCAH [TN8 phage isolate 02 (SEQ ID NO: 13)], which R (ELISA score with target / ELISA score without target) [1] is on record?
**A.** 8

**Q.** What about the ELISA signal [2] of the same binder?
**A.** 0.3 OD630

**Q.** Which % recovery in Flow [3] does the source give for AEGTGDFCWVFPFHHCFDPGPEGGGS-NHNH2 (disulfide 8-16 (inferred)) [CS-460 (…-NHNH2)] here?
**A.** 24.6%

**Q.** And the % recovery in elution A [3]?
**A.** 28.8%

**Q.** What about the % recovery in elution B [3] of the same binder?
**A.** 0%

**Q.** What about the % recovery in pH2 [3] of the same binder?
**A.** 0%

**Q.** What about the % recovery in Flow [4] of the same binder?
**A.** 28.4%

**Q.** And the % recovery in elution A [4]?
**A.** 0%

**Q.** For AEGTGDHLCGAWFRPCDADPGPEGGGS-NHNH2 (disulfide 9-16) [CS-454 (…-NHNH2)], which % of input recovered in Eluate [5] is on record?
**A.** 49%

**Q.** What about the % of input recovered in Unbound [5] of the same binder?
**A.** 24%

**Q.** What about the % of input recovered in Wash [5] of the same binder?
**A.** 12%

**Q.** And the % recovery in Flow [3]?
**A.** 2.5%

**Q.** What about the % recovery in elution A [3] of the same binder?
**A.** 45.1%

**Q.** And the % recovery in elution B [3]?
**A.** 0%

**Q.** What about the % recovery in pH2 [3] of the same binder?
**A.** 0%

**Q.** And the % recovery in Flow [4]?
**A.** 2.2%

**Q.** And the % recovery in elution A [4]?
**A.** 42.4%

**Q.** What does the source list for AEGTGDFCWVFPFQHCADPGPEGGGS-NHNH2 (disulfide 8-16 (inferred)) [CS-459 (…-NHNH2)]?
**A.** % recovery in Flow [3]: 1.6%; % recovery in elution A [3]: 42.1%; % recovery in elution B [3]: 0%; % recovery in pH2 [3]: 0%; % recovery in Flow [4]: 6.4%; % recovery in elution A [4]: 31.2%

**Q.** Which results are given for FCWVFPFNHCS [TN9 phage isolate 12 (SEQ ID NO: 28)]?
**A.** R (ELISA score with target / ELISA score without target) [1]: 18; ELISA signal [2]: 1 OD630

**Q.** Which results are given for FCWVFNFSHCS [TN9 phage isolate 03 (SEQ ID NO: 26)]?
**A.** R (ELISA score with target / ELISA score without target) [1]: 24; ELISA signal [2]: 1.1 OD630

**Q.** Which results are given for HLCGAWFRPCDA [TN8 phage isolate 02 (E02-TN8, SEQ ID NO: 16)]?
**A.** R (ELISA score with target / ELISA score without target) [1]: 6; ELISA signal [2]: 0.4 OD630

**Q.** For HLCFAWFRPCDA [TN8 phage isolate 12 (SEQ ID NO: 17)], which R (ELISA score with target / ELISA score without target) [1] is on record?
**A.** 8

**Q.** And the ELISA signal [2]?
**A.** 0.4 OD630

**Q.** For RLCSWISPCSA [TN7 phage isolate D04], which R (ELISA score with target / ELISA score without target) [1] is on record?
**A.** 6

**Q.** What about the ELISA signal [2] of the same binder?
**A.** 0.3 OD630

**Q.** Which results are given for FCWVFPFQHCA [TN9 phage isolate 09 (E09-TN9)]?
**A.** R (ELISA score with target / ELISA score without target) [1]: 24; ELISA signal [2]: 1.1 OD630

**Q.** With FGCSWLFPCPF [TN7 phage isolate A08] as the binder, how does the R (ELISA score with target / ELISA score without target) [1] read?
**A.** 8

**Q.** What about the ELISA signal [2] of the same binder?
**A.** 0.4 OD630

**Q.** For HPCGSWLRPCLH [TN8 phage isolate 10 (C10-TN8)], which R (ELISA score with target / ELISA score without target) [1] is on record?
**A.** 16

**Q.** What about the ELISA signal [2] of the same binder?
**A.** 1 OD630

**Q.** HRCGSWLHPCLA [TN8 phage isolate 11/G10 (A11/G10-TN8)] was tested. Which R (ELISA score with target / ELISA score without target) [1] did it give?
**A.** 6

**Q.** What about the ELISA signal [2] of the same binder?
**A.** 0.3 OD630

**Q.** How did the R (ELISA score with target / ELISA score without target) [1] turn out when FCWVFPFNHCD [TN9 phage isolate 02 (SEQ ID NO: 27)] was run?
**A.** 8

**Q.** And the ELISA signal [2]?
**A.** 0.4 OD630

**Q.** HGCGAWFRPCHA [TN8 phage isolate 01 (SEQ ID NO: 18)] was tested. Which ELISA signal [2] did it give?
**A.** 0.2 OD630

**Q.** Which R (ELISA score with target / ELISA score without target) [1] does the source give for FCWVFNWVHCD [TN9/1 phage isolate … (SEQ ID NO: 75)] here?
**A.** 14

**Q.** With FCHVFHFSHCD [TN9 phage isolate 01 (SEQ ID NO: 24)] as the binder, how does the ELISA signal [2] read?
**A.** 0.2 OD630

**Q.** What does the source list for FCHVFNFVHCS [TN9 phage isolate 01 (SEQ ID NO: 31)]?
**A.** R (ELISA score with target / ELISA score without target) [1]: 8; ELISA signal [2]: 0.5 OD630

**Q.** Which results are given for RLCSWVSPCSA [TN7 phage isolate C5/G10]?
**A.** R (ELISA score with target / ELISA score without target) [1]: 10; ELISA signal [2]: 0.5 OD630

**Q.** FCWVHPFAHCL [TN9 phage isolate 02 (SEQ ID NO: 23)] was tested. Which ELISA signal [2] did it give?
**A.** 0.2 OD630

**Q.** RGCGSWLRPCLD [TN8 phage isolate 05 (SEQ ID NO: 11)] was tested. Which ELISA signal [2] did it give?
**A.** 0.2 OD630

**Q.** For AEGTGDFGCSWLFPCPFDPGPEGGGS-NHNH2 (disulfide 9-15) [CS-456 (…-NHNH2)], which % of input recovered in Eluate [5] is on record?
**A.** 24%

**Q.** What about the % of input recovered in Unbound [5] of the same binder?
**A.** 47%

**Q.** And the % of input recovered in Wash [5]?
**A.** 20%

**Q.** What about the % recovery in Flow [3] of the same binder?
**A.** 3.4%

**Q.** And the % recovery in elution A [3]?
**A.** 44.8%

**Q.** And the % recovery in elution B [3]?
**A.** 0%

**Q.** And the % recovery in pH2 [3]?
**A.** 0%

**Q.** And the % recovery in Flow [4]?
**A.** 4.8%

**Q.** What about the % recovery in elution A [4] of the same binder?
**A.** 43%

**Q.** AEGTGDHPCGSWLRPCLHDPGPEGGGS-NHNH2 (disulfide 9-16 (inferred)) [CS-453 (…-NHNH2)] was tested. Which % recovery in Flow [3] did it give?
**A.** 0%

**Q.** And the % recovery in elution A [3]?
**A.** 43.2%

**Q.** What about the % recovery in elution B [3] of the same binder?
**A.** 0%

**Q.** And the % recovery in pH2 [3]?
**A.** 0%

**Q.** What about the % recovery in Flow [4] of the same binder?
**A.** 0%

**Q.** And the % recovery in elution A [4]?
**A.** 26.4%

**Q.** Which ELISA signal [2] does the source give for FHCIGVWFCLH [TN7 phage isolate A09] here?
**A.** 0.1 OD630

**Q.** What does the source list for FCWVFPFHHCF [TN9 phage isolate 06 (D06-TN9)]?
**A.** R (ELISA score with target / ELISA score without target) [1]: 6; ELISA signal [2]: 0.3 OD630

**Q.** For HPCGAWFNPCPR [TN8 phage isolate 01 (SEQ ID NO: 19)], which ELISA signal [2] is on record?
**A.** 0.2 OD630

**Q.** What does the source list for HACGSWFRPCHA [TN8 phage isolate 07 (SEQ ID NO: 15)]?
**A.** R (ELISA score with target / ELISA score without target) [1]: 6; ELISA signal [2]: 0.4 OD630

**Q.** With HPCGSWLHPCAA [TN8 phage isolate 04 (SEQ ID NO: 12)] as the binder, how does the R (ELISA score with target / ELISA score without target) [1] read?
**A.** 6

**Q.** And the ELISA signal [2]?
**A.** 0.3 OD630

**Q.** Which results are given for HPCGSWFRPCFH [TN8 phage isolate 02 (SEQ ID NO: 14)]?
**A.** R (ELISA score with target / ELISA score without target) [1]: 16; ELISA signal [2]: 0.7 OD630

**Q.** With AEGTGDFHCIGVWFCLHDPGPEGGGS-NHNH2 (disulfide 9-15 (inferred)) [CS-455 (…-NHNH2)] as the binder, how does the % recovery in Flow [3] read?
**A.** 65.8%

**Q.** And the % recovery in elution A [3]?
**A.** 1.4%

**Q.** What about the % recovery in elution B [3] of the same binder?
**A.** 0%

**Q.** What about the % recovery in pH2 [3] of the same binder?
**A.** 0%

**Q.** And the % recovery in Flow [4]?
**A.** 61.6%

**Q.** And the % recovery in elution A [4]?
**A.** 1.3%

**Q.** For AEGTGDFCWVFAFDHCHDPGPEGGGS-NHNH2 (disulfide 8-16) [CS-458 (…-NHNH2)], which % of input recovered in Eluate [5] is on record?
**A.** 47%

**Q.** And the % of input recovered in Unbound [5]?
**A.** 20%

**Q.** What about the % of input recovered in Wash [5] of the same binder?
**A.** 10%

**Q.** What about the % of total recovered in Eluate [6] of the same binder?
**A.** 27%

**Q.** What about the % of total recovered in Unbound [6] of the same binder?
**A.** 59%

**Q.** And the % of total recovered in Wash [6]?
**A.** 14%

**Q.** And the % recovery in Flow [3]?
**A.** 1.8%

**Q.** What about the % recovery in elution A [3] of the same binder?
**A.** 54.3%

**Q.** And the % recovery in elution B [3]?
**A.** 0%

**Q.** And the % recovery in pH2 [3]?
**A.** 0%

**Q.** What about the % recovery in Flow [4] of the same binder?
**A.** 1.4%

**Q.** And the % recovery in elution A [4]?
**A.** 55.6%

**Q.** How did the R (ELISA score with target / ELISA score without target) [1] turn out when HSCGSWLFPCFA [TN7 phage isolate A06] was run?
**A.** 10

**Q.** What about the ELISA signal [2] of the same binder?
**A.** 0.5 OD630

**Q.** For FCWVFQFRHCH [TN9/1 phage isolate … (SEQ ID NO: 77)], which R (ELISA score with target / ELISA score without target) [1] is on record?
**A.** 8

**Q.** How did the ELISA signal [2] turn out when FCHVFPFLHCD [TN9 phage isolate 11 (SEQ ID NO: 32)] was run?
**A.** 0.2 OD630

**Q.** Which R (ELISA score with target / ELISA score without target) [1] does the source give for FCWVFAFDHCH [TN9 phage isolates 04 (B04-TN9) and 01 displaying Phe-Cys-Trp-Val-Phe-Ala-Phe-Asp-His-Cys-His] here?
**A.** 24

**Q.** Which R (ELISA score with target / ELISA score without target) [1] does the source give for HPCGAWLRPCYN [TN8 phage isolate 08 (SEQ ID NO: 20)] here?
**A.** 20

**Q.** What about the ELISA signal [2] of the same binder?
**A.** 1 OD630

**Q.** Which ELISA signal [2] does the source give for PHCNWLFPCSL [TN7 phage isolate D03] here?
**A.** 0.2 OD630
